# According to patent US20190389970A1:
# B1: 6B5 (antibody, V domains shown)
# VH: QVQLQQSDAELVKPGASVKISCKVSGYTFTDHTIHWMKQRPEQGLEWIGYNYPRDGSTKYNEKFKGKATLTADKSSSTAYMQLNSLTSEDSAVYFCAKGFITTVVPSAYWGQGTLVTVSA
# VL: DVQITQSPSYLAASPGETITINCRASKSISKYLAWYQEKPGKTNKLLIYSGSTLQSGIPSRFSGSGSGTDFTLTISSLEPEDFAMYYCQQHNEYPWTFGGGTKLEIK
# B2: 7B10 (antibody, IgM, V domains shown)
# VH: QVQLQQSGAELAKPGASVKLSCKASGYTFTSYWMHWVKQRPGQGLEWIGYINPSSGYTKYNQKFKDKATLTADKSSSTAYMQLSSLTYEDSAVYYCARGGYYGFAYWGQGTLVTVSA
# VL: QIVLTQSPALMSASPGEKVTMTCSASSSVSYMYWYQQKPRSSPKPWIYLTSNLASGVPARFSGSGSGTSYSLTISSMEAEDAATYYCQQWSSNPLTFGAGTKLELK
# B3: 9H11 (antibody, IgM, V domains shown)
# VH: B2 VH
# VL: B2 VL
# B4: 9H10 (antibody, IgM, V domains shown)
# VH: QVQLKQSGPGLVQPSQSLSITCTVSGFSLTSYGVHWVRQSPGKGLEWLGVIWSGGSTDYNAAFISRLSISKDNSKSQVFFKMNSLQADDTAIYYCARNYGYDYAMDYWGQGTSVTVSS
# VL: DILLTQSPAILSVSPGERVSFSCRASQSIGTSIHWYQQRTNGSPRLLIKYASESISGIPSRFSGSGSGTDFTLSINSVESEDIADYYCQQSNSWPFTFGSGTKLEIK
# B5: 6C8 (antibody, V domains shown)
# VH: QVQLQQSGAELVKPGASVKISCKASGYAFSSYWMNWVKQRPGKGLEWIGQIYPGDGDTNYNGKFKGKATLTADKSSSTAYMQLSSLTSEDSAVYFCTRRCYYGLYFDVWGTGTTVTVSS
# VL: DIKMTQSPSSRYASLGERVTITCKASQDINRYLSWFQQKPGKSPKTLIYRANRLVDGVPSRFSGSGSGQDYSLTISSLEYEDMGIYYCLQYDEFPYTFGGGTKLEIK
# What was measured:
# [1] = target: Free BSA (Sigma A6003) (UniProt P02769); experiment: ELISA, free BSA coated at 500 ng/well in sodium bicarbonate, gamma detection, antibody at 1 µg/ml
# Chain of UniProt P02769 (P02769 25-607 limits assumed): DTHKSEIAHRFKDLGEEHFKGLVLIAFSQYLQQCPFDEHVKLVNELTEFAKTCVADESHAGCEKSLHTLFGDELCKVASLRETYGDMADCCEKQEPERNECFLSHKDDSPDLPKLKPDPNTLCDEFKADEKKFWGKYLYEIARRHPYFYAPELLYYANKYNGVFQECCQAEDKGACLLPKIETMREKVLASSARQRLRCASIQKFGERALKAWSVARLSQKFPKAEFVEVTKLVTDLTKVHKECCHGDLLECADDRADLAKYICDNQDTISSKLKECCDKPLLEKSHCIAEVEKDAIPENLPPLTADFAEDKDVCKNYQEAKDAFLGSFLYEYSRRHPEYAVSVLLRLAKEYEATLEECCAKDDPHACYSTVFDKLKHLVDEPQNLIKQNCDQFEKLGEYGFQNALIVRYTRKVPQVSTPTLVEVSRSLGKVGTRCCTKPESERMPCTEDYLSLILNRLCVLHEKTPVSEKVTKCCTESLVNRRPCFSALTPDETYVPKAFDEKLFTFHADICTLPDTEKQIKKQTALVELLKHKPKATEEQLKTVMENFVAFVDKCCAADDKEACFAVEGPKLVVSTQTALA
# [2] = target: Free BSA (Sigma A6003) (UniProt P02769); experiment: ELISA, free BSA coated at 500 ng/well in sodium bicarbonate, gamma detection, antibody at 0.1 µg/ml
# [3] = target: Free BSA (Sigma A6003) (UniProt P02769); experiment: ELISA, free BSA coated at 300 ng/well, anti-IgG (gamma) detection
# [4] = target: Free BSA (Sigma A6003) (UniProt P02769); experiment: ELISA, free BSA coated at 500 ng/well in sodium bicarbonate, gamma detection, antibody at 10 µg/ml
Binder,OD [1] [OD],OD [2] [OD],OD [3] [OD],OD [4] [OD]
B1,0.119,0.079,1.29,0.15
B2,–,–,0.077,–
B3,–,–,0.105,–
B4,–,–,0.095,–
B5,0.057,0.056,0.098,0.062
